In the Immune Epitope Database (IEDB) one finds IC50 data, which are given here for 18 sequences.

What is called IC50 is the concentration that gives 50% inhibition.

One assay concerns the target HLA-B*07:02. In words: IEDB peptide-MHC binding, purified MHC/competitive/radioactivity; ≥ and ≤ were set here for values at or beyond the usual limits of such assays. The following applies: source organism: Bordetella pertussis.
On to EPASANTLL, for which the 50% inhibitory concentration (IC50) amounted to 15 µM.
In the case of LKRPGSSPM, the IC50 worked out at 3.84 µM.

The next assay deals with HLA-A*02:01. The assay is described as above. The following applies: source organism: Bordetella pertussis.
Consider YVLVKTNMV, for which the IC50 was determined as 3.96 µM.

The next assay concerns the target HLA-B*57:01. Described as above. To be noted: source organism: Bordetella pertussis.
Regarding ASVSNPGTF, the IC50 came out at 40.8 µM.
For the sequence KSLPGGKLP, the IC50 is 5.78 µM.

In another assay the target is HLA-B*44:03. The description is as above. To be noted: source organism: Bordetella pertussis.
Take AAQATVVQR: the IC50 amounted to 23.3 µM.
For AEVTDTSPS, the IC50 worked out at 41.2 µM.
Turning to FEPGITTNY, the IC50 was found to be 42.8 µM.
GAASSYFEY: the IC50 was 44 µM.
The same measure, in the same setting: for RELSAAANA the value was 21.1 µM.
Consider YEYIWGLYQ, for which the IC50 was 8.91 µM.

The next assay has as its target HLA-B*53:01. The description is as above. To be noted: source organism: Bordetella pertussis.
On to ASPRRARRA, for which the IC50 is 69.9 µM.
Take GAASSYFEY: the IC50 was 47.3 µM.
For LAANGNGQW, the IC50 was 1.67 µM.
For the sequence LATYQSEYL, the IC50 was at least 78.2 µM.
Same read-out and setting: for MPIDRKTLC the value was 1.63 µM.
On the same count and under the same terms, the same measure for PKPKPKAER: at least 78.2 µM; for TAGATPFDI: 4.91 µM.

For another assay, the target named is HLA-B*35:01. Described as above. The following applies: source organism: Bordetella pertussis.
Regarding EPASANTLL, the IC50 was found to be 69.9 µM.
For GAASSYFEY, the IC50 was determined as 2.67 µM.
With NALAWALML, the IC50 came to 6.31 µM.
